Results taken from patent US20170369523A1, “TEMPLATE-FIXED BETA-HAIRPIN PEPTIDOMIMETICS THAT ARE LIGANDS FOR G-PROTEIN-COUPLED RECEPTORS (GPCRS) AND ARE MODULATORS OF TRANSCRIPTION FACTORS AND COACTIVATORS” (POLYPHOR AG, priority 2008, published 2017).
Numbered stars: 1 amine (or outer) side, 2 acyl side, 3 side chain; on linkers, the order of the positions; unused ones are H or OH. Bridge positions count the residues as written; N and C are the ends. Square brackets hold non-standard residues; d marks the D form. Peptide text beside a SMILES is read from it. Glu(cHx) = L-glutamic acid cyclohexyl ester, O=C(CC[C@H](N[*:1])C(=O)[*:2])OC1CCCCC1; Pro(4S-SH) = O=C([C@@H]1C[C@H](S[*:3])CN1[*:1])[*:2]; Trp(6-Cl) = N[C@@H](Cc1c[nH]c2cc(Cl)ccc12)C(=O)O; Cha = N[C@@H](CC1CCCCC1)C(=O)O; Orn = NCCC[C@H](N)C(=O)O

T1: human UTR2 receptor (human, UniProt Q9UKP6 1-389)
T1 sequence (looked up): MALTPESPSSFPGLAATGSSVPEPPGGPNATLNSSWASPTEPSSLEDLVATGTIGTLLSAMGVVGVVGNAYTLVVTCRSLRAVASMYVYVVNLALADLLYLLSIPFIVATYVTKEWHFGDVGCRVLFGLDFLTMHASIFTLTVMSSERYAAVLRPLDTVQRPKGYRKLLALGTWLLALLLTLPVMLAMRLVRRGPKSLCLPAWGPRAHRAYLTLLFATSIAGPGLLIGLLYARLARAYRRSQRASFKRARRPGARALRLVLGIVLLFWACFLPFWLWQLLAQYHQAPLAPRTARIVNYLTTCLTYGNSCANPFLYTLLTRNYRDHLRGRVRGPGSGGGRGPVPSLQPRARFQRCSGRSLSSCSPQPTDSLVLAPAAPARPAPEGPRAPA

T2: NCoA-1 (Homo sapiens, UniProt Q15788)
T2 sequence (Q15788 257-385 limits assumed): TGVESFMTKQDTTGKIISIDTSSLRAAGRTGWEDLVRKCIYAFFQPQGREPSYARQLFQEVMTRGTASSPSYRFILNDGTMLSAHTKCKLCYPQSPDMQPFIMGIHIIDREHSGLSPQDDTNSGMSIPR

B1: Ex. 35 (peptide)
peptide: cyclo(DCFWKYC[Cha][dP]P)
modifications: disulfide 2-7
SMILES: NCCCC[C@@H]1NC(=O)[C@H](Cc2c[nH]c3ccccc23)NC(=O)[C@H](Cc2ccccc2)NC(=O)[C@@H]2CSSC[C@H](NC(=O)[C@H](Cc3ccc(O)cc3)NC1=O)C(=O)N[C@@H](CC1CCCCC1)C(=O)N1CCC[C@@H]1C(=O)N1CCC[C@H]1C(=O)N[C@@H](CC(=O)O)C(=O)N2
B2: Ex. 32 (peptide)
peptide: cyclo(DCF[dW][Orn]YCV[dP]P)
modifications: disulfide 2-7
SMILES: CC(C)[C@@H]1NC(=O)[C@@H]2CSSC[C@H](NC(=O)[C@H](CC(=O)O)NC(=O)[C@@H]3CCCN3C(=O)[C@H]3CCCN3C1=O)C(=O)N[C@@H](Cc1ccccc1)C(=O)N[C@H](Cc1c[nH]c3ccccc13)C(=O)N[C@@H](CCCN)C(=O)N[C@@H](Cc1ccc(O)cc1)C(=O)N2

Target: T1, human UTR2 receptor
Assay: cell-based or functional assay
Settings: not given

B1 was tested. Which “IC50% (Ca2+ assay, antagonist activity; compound added prior to urotensin)” value did it give?
The value was 0.2 nM.

How did the “IC50% (Ca2+ assay, antagonist activity; compound added prior to urotensin)” value turn out when B2 was run?
The value was 0.03 nM.

Target: T2, NCoA-1
Assay: Competition fluorescence polarization assay: NCoA-1 binding affinities of peptides (STAT6/NCoA-1 interaction)
Settings: competition with FluoSTAT6 (200 nM), NCoA-1 1 μM; Ki calculated from IC50; read-out: Ki [μM], peptide binding to NCoA-1
Protocol: 2.4. Fluorescence Polarization Assay: NCoA-1 Binding Affinities of Peptides
The mixtures were shaken thoroughly. Fluorescence polarization was measured on a SPECTRAmax M5 spectrometer (Molecular device) following 5-30 min incubation at room temperature. FluoSTAT6 was excited at 490 nm and emission polarization was detected at 525 nm. 40 intensity measurements were collected for each well, 20 at horizontal position of the dynamic polarizer, 20 at parallel position. As the fraction of FluoSTAT6 bound to NCoA-1 is correlated to the fluorescence polarization (FP), after normalization, the fraction of bound FluoSTAT6 (B) was determined, and the KD was calculated according to B=[(1+P/R+KD/R)−((1+P/R+KD/R)^2−4P/R)^0.5]/2, wherein P is the total probe concentration, R the total protein concentration and KD the dissociation constant (M. H. Roehrl, J. Y. Wang, G. Wagner, Biochemistry 2004, 3, 16056).
The mixture was completed by a HEPES buffer solution of NCoA-1 (1 μM final concentration) and processed as described above. STAT6Y (C-terminal tyrosine extended STAT6 794-814 peptide) was used as a positive control. As the total fluorescence intensity of FluoSTAT6 remains similar for all samples, the fraction of peptide bound to NCoA-1 is correlated to the fluorescence polarization.
Following normalization data were fitted with IGORpro Software® (WaveMetrics, Lake Oswego, Oreg., USA) to a sigmoid equation to determine IC50 values. The Ki values were calculated from IC50 values according to the method described by Nikolovska-Coleska et al. Anal. Biochem., 2004, 332, 261).

“backbone-cyclized β-hairpin peptidomimetic; P1-P8 Phe-Glu-Trp-Leu-Ala-Trp-Glu-Glu(cHx), template DPro-LPro (cyclo(FEWLAWE[Glu(cHx)][dP]P); SMILES CC(C)C[C@@H]1NC(=O)[C@H](Cc2c[nH]c3ccccc23)NC(=O)[C@H](CCC(=O)O)NC(=O)[C@H](Cc2ccccc2)NC(=O)[C@@H]2CCCN2C(=O)[C@H]2CCCN2C(=O)[C@H](CCC(=O)OC2CCCCC2)NC(=O)[C@H](CCC(=O)O)NC(=O)[C@H](Cc2c[nH]c3ccccc23)NC(=O)[C@H](C)NC1=O) [compound 9]” was tested. Which Ki did it give?
The Ki was 1.5 µM.

With “backbone-cyclized β-hairpin peptidomimetic; P1-P8 Phe-Thr-Trp(6Cl)-Leu-Ala-Trp-Glu-Phe, template DPro-L4Mp1 (cyclo(FT[Trp(6-Cl)]LAWEF[dP][Pro(4S-SH)]); SMILES CC(C)C[C@@H]1NC(=O)[C@H](Cc2c[nH]c3cc(Cl)ccc23)NC(=O)[C@H]([C@@H](C)O)NC(=O)[C@H](Cc2ccccc2)NC(=O)[C@@H]2C[C@H](S)CN2C(=O)[C@H]2CCCN2C(=O)[C@H](Cc2ccccc2)NC(=O)[C@H](CCC(=O)O)NC(=O)[C@H](Cc2c[nH]c3ccccc23)NC(=O)[C@H](C)NC1=O) [compound 5]” as the molecule, how does the Ki read?
Its Ki is 3.8 µM.

With `CC[C@H](C)[C@@H]1NC(=O)[C@H](CCC(=O)O)NC(=O)[C@H](Cc2c[nH]c3ccccc23)NC(=O)[C@H](C)NC(=O)[C@H](CC(C)C)NC(=O)[C@H](Cc2c[nH]c3ccccc23)NC(=O)[C@H](CCC(=O)O)NC(=O)[C@H](Cc2ccccc2)NC(=O)[C@@H]2CCCN2C(=O)[C@H]2CCCN2C1=O` [compound 10] (cyclo(FEWLAWEI[dP]P)) as the molecule, how does the Ki read?
The Ki was 3.1 µM.

With `C[C@@H]1NC(=O)[C@H](CS)NC(=O)[C@H](Cc2c[nH]c3cc(Cl)ccc23)NC(=O)[C@H](CCC(=O)O)NC(=O)[C@H](Cc2ccccc2)NC(=O)[C@@H]2CCCN2C(=O)[C@H]2CCCN2C(=O)[C@H](Cc2ccccc2)NC(=O)[C@H](CCC(=O)O)NC(=O)[C@H](Cc2c[nH]c3ccccc23)NC1=O` [compound 15] (cyclo(FE[Trp(6-Cl)]CAWEF[dP]P)) as the molecule, how does the Ki read?
The Ki was 3.1 µM.
